Values quoted from earlier work, collected in PMC10213776.

Molecular target: IL-18 (Homo sapiens) (UniProt Q14116)
Sequence (Q14116 37-193): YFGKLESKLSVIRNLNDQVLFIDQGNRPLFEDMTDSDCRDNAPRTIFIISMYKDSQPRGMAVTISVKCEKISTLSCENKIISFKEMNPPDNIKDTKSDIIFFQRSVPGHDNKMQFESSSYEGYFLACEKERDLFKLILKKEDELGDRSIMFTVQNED

Chain of IL-18BP (O95998 31-194): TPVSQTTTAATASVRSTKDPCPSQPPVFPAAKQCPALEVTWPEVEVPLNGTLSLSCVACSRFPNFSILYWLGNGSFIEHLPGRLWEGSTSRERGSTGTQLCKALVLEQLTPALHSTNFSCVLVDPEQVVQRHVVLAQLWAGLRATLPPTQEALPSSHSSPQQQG

**Q.** Which Kd does the source give for IL-18BP (from UniProt O95998) here?
**A.** The Kd was 0.4 nM.
